Drawing on US20250382354A1, this text covers EC50 for 16 molecules.

One may read the EC50 as the concentration needed to bring the measured effect to its halfway point.

Holding throughout (experiment): peptide ELISA
(In general: An ELISA detects its analyte on a solid surface through an enzyme-linked reagent.)

The target of assay [1] is 229E FP peptide (229E).
The target in assay [2] is NL63 FP peptide (NL63), Q6Q1S2.
Assay [3] deals with SARS-CoV-2 FP peptide (SARS-CoV-2).
Assay [4] deals with HKU1 FP peptide (HKU1).
Assay [5] deals with OC43 FP peptide (OC43), P36334.
The target of assay [6] is MERS FP peptide (MERS), K9N5Q8.
Assay [7] has as its target SARS-CoV FP peptide (SARS-CoV), P59594.
The target of assay [8] is SARS-CoV-2 HR2 peptide (SARS-CoV-2), P0DTC2.
Assay [9] concerns the target MHV HR2 peptide (MHV).
The target of assay [10] is HKU4 HR2 peptide (HKU4), A3EX94.
The target of assay [11] is HKU5 HR2 peptide (HKU5), A3EXD0.
Assay [12] deals with SADS HR2 peptide (SADS).

B1: fp.001 (antibody, V domains shown)
VH: VQLVESGGGVVQPGRPLRLSCSGSGFIFSNYAMHWVRQAPGKGLEWVAIISFDARNKRYADSVEGRFTISRDNSKNILYLQMNSLRLEDSAVYFCARDLFLSDYDNGVYDPTRGGFDYWGQGTLVTVSS
VL: EIVMTQSPATLSLSPGERATLSCRASQSVNNRLAWYQQKLGQPPRLLISGASTRATGIPARFTGSGSGTEFTLTISSLQSEDFAVYYCQQYHDWPLLSFGGGTKVEIK
In the case of B1, the EC50 in [1] came out at 0.0232 µg/mL; in [2] it was 0.0214 µg/mL; in [3] it was 0.0249 µg/mL; in assay [4] it was 0.0298 µg/mL; in assay [5], 0.0175 µg/mL; in assay [6] it was 0.0369 µg/mL. In assay [7], this molecule yielded an EC50 of 0.0289 µg/mL.

B2: hr2.090 (antibody, V domains shown)
VH: EVQLLESGGGLVQPGGSLRLSCAASGVTFSRYAMSWVRQAPGKGLEWVSTISGGGGGTYYADSVKGRFTISRDNSKNTLYLQMNSLRAEDTAVYYCATLLTVPGPYYFEYWGQGTLVTVSS
VL: EIVLTQSPGTLSLSPGERATLSCRASQSVSSSYLAWYQQKPGQAPRLLIYGASSRATGIPDRFSGSGSGTDFTLTISRLESEDFAVYYCQHSRFTFGPGTRVDIK
For the molecule B2, the figures for the EC50 in assay [8], in [9] and in assay [10] were 0.085 µg/mL, 0.761 µg/mL and 0.425 µg/mL, respectively.

B3: hr2.017 (antibody, V domains shown)
VH: EVQLVESGGGLVQPGGSLRLSCAVSGFAFSSSWMHWIRQAPGRGLVWVSRINRDGSTTDYADSVKGRFTISRDNAKATLYLQMNSLRAEDTAVYYCATMGFDYWGQGALVTVSS
VL: DIVMTQSPDSLAVSLGERATINCKSSQNVLYSSNNKNHLSWYQQKPGQPPKLLIYWASTRKSGVPDRFSGSGSGTDFTLTINSLQAEDVAVYYCQQYFSTPNTFGQGTKLEIK
B3: the half-maximal effective concentration (EC50) in assay [8] was 0.0145 µg/mL; in assay [9] it was 0.02 µg/mL; in assay [11] it was 0.0249 µg/mL; in assay [10], 0.0203 µg/mL.

B4: hr2.086 (antibody, V domains shown)
VH: EVQLLESGGGLVQPGGYLRLSCAASGFTFSSYAMSWVRQAPGKGLEWVSVISGGGGSAYYADSVKGRFTISRDNSKNTLYLQMNSLRAEDTAVYYCAKIGMILVFDYWGQGTLVTVSS
VL: EIVLTQSPGTLSLSPGERATLSCRASQSVSNNYLAWYQQKPGQAPRLLISGASSRATGIPDRFSGSGSGTDFTLTISRLEPEDFAVYYCQQYGSSPPTFGQGTKVEIK
The molecule B4 showed an EC50 in assay [10] of 0.0269 µg/mL.

B5: hr2.012 (antibody, V domains shown)
VH: QVQLVQSGAEVKKPGASVKVSCKASGYTFTSHYIHWVRQAPGQGLEWMGIIKPSGGNTIYAQTFQGRVTMTRDTSTSTVYMELRSLTSDDTAVYYCARDQDHGLQRWGQGTLVTVSS
VL: QSVLTQPPSVSAPPGQKVTISCSGSSSNIGNNFVSWYQQLPGTAPKLLIYDNIERPSGIPDRFSGSRSGTSATLGITGLQTGDEADYYCGTWDTSLGAWVFGGGTKVTVL
On to B5, for which the EC50 in [8] is 0.0196 µg/mL; in assay [9], 0.0177 µg/mL; in assay [11], 0.0204 µg/mL; in [10], 0.0184 µg/mL; in assay [12], 0.023 µg/mL.

B6: hr2.014 (antibody, V domains shown)
VH: QVQLVQSGAEVKKPGASVKVSCKASGYTFTTYAVHWLRQVPGQRPEWIGWINAANGNTKYSEKFQGRVTITRDTSASTAYMDLRSLRSEDTAVYYCARLLVVRDDPYYYGMDVWGQGTTVTVSS
VL: not shown
Turning to B6, the EC50 in assay [8] turned out to be 0.0357 µg/mL; in [11], 0.0312 µg/mL; in assay [10], 0.0457 µg/mL; in assay [12] it was 0.705 µg/mL.

B7: hr2.021 (antibody, V domains shown)
VH: QVQLVQSGAEVKKPGASVKVSCKASEAIFSGSYLHWVRQAPGQGLEWMGIITPSGDKTFYAQRFQGRLTMTRDTSTNTLHMHLSGLNSEDTAMYYCARQADKGGWDYWGQGTLVTVSS
VL: EIVLTQSPGTLSLSPGERATLSCRASQSVTSNYVAWYQQKPGQAPRLLIYGASTRATGIPDRFSGGGSGTDFTLTITRLEPEDFAVYYCQQYGSSPPTFTFGPGTKVDIK
As to B7, the half-maximal effective concentration (EC50) was 0.0242 µg/mL in [8], 0.0333 µg/mL in assay [9], 0.0551 µg/mL in assay [11] and 0.021 µg/mL in assay [10].

B8: hr2.024 (antibody, V domains shown)
VH: QVQLVQSGAEVKKPGASVKVSCKASEDIFTDSYLHWVRQAPGQGLEWMGIITPSGDKTFYAQQFQGRLTMTRDPSTNTLYMFLSGLRSDDTAMYFCARQAEKGGWDYWGHGTLVTVSS
VL: EIVLTQSPGTLSLSPGQRATLSCRSSQTITSNYLAWYQQRPGQAPRLLIYGASIRATGIPDRFSGSGSGTDFTLTISRLEPEDFAVYYCQQYGSSPPTFIFGPGTKVDIK
In the case of B8, the 50% effective concentration (EC50) in [8] stood at 0.106 µg/mL; in [9], 0.0259 µg/mL; in assay [11], 0.048 µg/mL; in assay [10], 0.0184 µg/mL.

B9: hr2.023 (antibody, V domains shown)
VH: QVQLVQSGAEVKKPGASVKVSCRASENIFSDSYLHWVRQAPGQGLEWMGIITPSGDKTFYAQQFQGRLTMTRDTPTNTLHMDLRGLTSADTAIYYCARQATKGGWDYWGQGTLVTVSS
VL: EIVLTQSPGTLSLSPGESATLSCRASQSVTRNYLAWYQQQPGQAPRLLIYGASNRATGVPDRFSGSGSGTDFTLTISRLEPEDFAVYYCQQYGSSPPTFIFGPGTKVDIK
On to B9, for which the EC50 in assay [8] turned out to be 0.0175 µg/mL; in assay [9] it was 0.0106 µg/mL; in assay [11] it was 0.0422 µg/mL; in assay [10], 0.0149 µg/mL.

B10: hr2.016 (antibody, V domains shown)
VH: EVQLLESGGGLVQPGGSLRLSCAASGFMFSKYAMTWVRQTPGKGLEWVSVISGGGGSTYYADSVKGRFTISRDNSKNTLYLQMNSLRAEDTAVYYCAKLLVVFVIDYWGQGALVTVSS
VL: EIVLTQSPGTLSLSPGERATLFCRASQSVSSNLAWYQQKPGRAPRLLISGASSRATGIPDRFSGSGSGTDFTLTISRLEPEDFAVYYCQQYGSSPPTFGQGTKVEIK
As to B10, the EC50 in [9] was 0.0266 µg/mL; in assay [11] it was 0.0256 µg/mL; in [10], 0.00744 µg/mL; in assay [12], 0.0738 µg/mL.

B11: fp.010 (antibody, V domains shown)
VH: EVQLLESGGGLVQPGGSLRLSCAASGFTFSTYAMNWVRQAPGKGLEWVSAISSSGLSTQYADSVRGRFTISRDTSKNTLYLHMNSLRAGDTAVYYCAKVEYSGYDPRGPFDSWGQGTLVTVSS
VL: DIQMTQSPSTLSASVGDRVTITCRASQSISGWLAWYQQKPGRAPKLLIYKASSLERGVPSRFSGSGSGTEFTLTISSLQPDDFATYYCQEYSSYPLCTFGQGTKLEIK
Regarding B11, the half-maximal effective concentration (EC50) in assay [1] stood at 0.135 µg/mL; in assay [2] it was 0.0451 µg/mL; in assay [3], 0.119 µg/mL; in assay [4], 0.0372 µg/mL; in [5], 0.0421 µg/mL; in [6], 0.0593 µg/mL.

B12: fp.008 (antibody, V domains shown)
VH: VQLVESGGGVVQPGRSLRLSCRASGFRFNNYAMHWVRQAPGKGLEWVAIISYEARNEKYAASVKGRFSISRDNAKNTLYLQMNSLRPEDTAIYYCARDVFLSDYDQSGYDVTRGGFDYWGQGTLVTVSS
VL: EIVMTQSPATLSVSPGESATLSCRASQSVSSSLAWYQHKFGQAPRLLIYGASTRATGIPDRFSGSGSGMEFTLTISSLQSEDVAIYYCQQYGDWPLVTFGGGTKVEIK
Turning to B12, the 50% effective concentration (EC50) in assay [1] is 0.019 µg/mL; in assay [2], 0.0226 µg/mL; in [3], 0.0366 µg/mL; in [4], 0.0219 µg/mL; in [5], 0.0235 µg/mL; in [6] it was 0.0361 µg/mL. In assay [7], the concentration giving a half-maximal response (EC50) came to 0.0267 µg/mL.

B13: fp.011 (antibody, V domains shown)
VH: EVQLLESGGGLVQPGGSLRLSCAGSGFTFNNYAMTWVRQAPGRGLEWVSAISGSGGSSHYADSVKGRFTITRDNSKNTLYLQMNSLRAEDTAVYYCAFIDYYSGWSYYYGLDVWGQGTTVTVSS
VL: EIVLTQSPATLSLSPGERATLSCRASQGVRTYVAWYQQKPGQAPRLLIYDASNRATGIPARFSGSGSGTDFTLTISSLEPEDFAVYYCQQRYNWPLCSFGQGTKLEIK
For B13, the half-maximal effective concentration (EC50) amounted to 0.0503 µg/mL in [1]; 0.0261 µg/mL in [2]; 0.0363 µg/mL in assay [3]; 0.0197 µg/mL in assay [4]; 0.0218 µg/mL in assay [5]; 0.0363 µg/mL in assay [6]. The same molecule showed a concentration for a half-maximal effect (EC50) in assay [7] of 0.023 µg/mL.

B14: hr2.018 (antibody, V domains shown)
VH: EVQLVESGGGLVKPGGSLRLSCVASGSSVIDAWMNWVRQAPGKGLEWVGRIKSKTNGATTDYAAPVKGRFTISRDDSKNLSYLQMNSLKTEDTGIYYCTTSPLPNFDYWGRGTLVTVSS
VL: not shown
Turning to B14, the figures for the EC50 in assay [8] and in assay [10] were 0.0336 µg/mL and 0.0417 µg/mL, respectively.

B15: hr2.019 (antibody, V domains shown)
VH: EVQLVESGGGLVKPGGSLRLSCAASGSSVIDVWMNWVRQAPGKGLEWVGRIKTKASGAATDYGAPVKGRFTISRDDSKNLSYLQMNSLRAEDTGIYYCTTSPLPNFDYWGRGTLVTVSS
VL: DIVMTQSPDFLAVSLGETATINCRSSQSVFYFANNKNYLAWYQQKPGQPPKLLIYWASKRESGVPDRFSGSGSGTDFTLTISSLQAEDVATYYCQQYSSPAITFGPGTKVDIK
Turning to B15, the concentration giving a half-maximal response (EC50) in assay [8] came out at 0.0267 µg/mL; in assay [11], 0.0505 µg/mL; in [10] it was 0.0154 µg/mL.

B16: hr2.020 (antibody, V domains shown)
VH: EVQLVQSGAEVKKPGESLKISCKGSGYRFASHWIGWVRQMPGKGLQWMGIIYPGDSDTKYSPSFQGQVTISADKSINTVYLHWTSLKASDTAVYYCARRPPHLDGGDSPIRFDHWGQGTLVTVSS
VL: QSVLTQPPSASGTPGQRVTISCSGSRSNIGSNDVYWYQQFPGTAPKLLIYRNNQRPSGVPDRFSGSKSGTSASLAISGLRSEDEADYYCATWDDRLTGVFGGGTKLTVV
B16: the concentration giving a half-maximal response (EC50) in assay [8] was 0.0353 µg/mL; in assay [9] it was 0.0285 µg/mL; in [11], 0.0631 µg/mL; in assay [10], 0.0352 µg/mL.
